Data: PMC5708649, “A novel Porphyromonas gingivalis enzyme: An atypical dipeptidyl peptidase III with an ARM repeat domain” (PLoS ONE, 2017)

How the values were obtained:
[1] = substrate: Cc1cc(=O)oc2cc(NC(=O)[C@H](CCCNC(=N)N)NC(=O)[C@@H](N)CCCNC(=N)N)ccc12; test: purified protein, by the assay type; details: pH 8.0; 26.0 °C
[2] = substrate: N=C(N)NCCC[C@H](NC(=O)[C@@H](N)CCCNC(=N)N)C(=O)Nc1ccc2ccccc2c1; test: purified protein, by the assay type; details: pH 8.0; 26.0 °C

B1: Full length PgDPP III (1–886 aa) (Porphyromonas gingivalis W83) (protein)
chain: MTKETTQHRSGERIARFADIEVLSYRADLFGTLTPKQRMLCYHLSEAALRGRDITTIQNCRYNLWVRSLMERIYTHLSKSERTDDFALLEEYLFCIWFANGIHHHYSGAKFIARFSPGFLRAALREAGVELEPEEQVLLERVLYDTDFLPKQTEQSGEEDIIKASSVNFYAPGITRAEAESHYKNLIEALPENEKSCPPSFGLNTRLIRSTSGELKDEVCCIDGLYGPAIEAVVASLEAAIPYTENEEQAACIRLLCDYYRTGDIRLYDRFCIRWVENNRTRIDFINGFTEVYADPIGIHGSWEGLVHMQDEEAGRRTRIISEHAGWFEAHSPIDARFRKKNPHGISATVVNVLTIAGDSYPATPIGINLPNADWIRAEHGSKSVTIDNITDAYNHAARGTGLYEEFIPDEEVRRHVELHADLTDSLHTDLHECLGHGSGQLLPGVPGDALGEHASTLEETRADLFALYFLADPKMIELGLLTDPDAYKANYYKYMLNGLMTQLVRIKRGEEIEEAHMRNRALIARYVLEHAERPGAMSLVCEEGKTALVIKDYEAVRAIIAGLLTEVQRIKSEGDYTAGKALVERYAVHVDPLLHEEVLTRYAKLDIAPYKGFVNPRLRPVYNSEGRLTDATIEYTEGYAEQMLRYSAEYSFLPTDSPLLQEARRLRSHLRRAMDGVLSASMREKGLHYGINFGVTREHLLRLARTADASAPLADYLWRRDVRETKILATMIFPAEELTHEQATRLLREADNVELREQLTANLLERMPEAIRSIGRWIESKETTPDMMTGVLTLAARLFTRGIFPEDVPAEKLLTLAILHLSDEEQKAELRRASALLLKRYGRGSAERTKKVLCLLPESSQDTAPVLYELCEDIRFELDFYPKDE
Km [1]: 2.56 ± 0.32 µM | kcat [1]: 0.29 ± 0.11 s⁻¹ | kcat/Km [1]: 113000 M⁻¹ s⁻¹ | Km [2]: 0.97 ± 0.16 µM | kcat [2]: 0.75 ± 0.13 s⁻¹ | kcat/Km [2]: 773000 M⁻¹ s⁻¹
